Target: T1, Recombinant p47-GST (human, UniProt Q9UNZ2 1-370)
T1 construct: p47 (NSFL1C), recombinant, bought (Novus H00055968-P01); source: bought: Novus, H00055968-P01, purified from wheat germ
T1 sequence (looked up): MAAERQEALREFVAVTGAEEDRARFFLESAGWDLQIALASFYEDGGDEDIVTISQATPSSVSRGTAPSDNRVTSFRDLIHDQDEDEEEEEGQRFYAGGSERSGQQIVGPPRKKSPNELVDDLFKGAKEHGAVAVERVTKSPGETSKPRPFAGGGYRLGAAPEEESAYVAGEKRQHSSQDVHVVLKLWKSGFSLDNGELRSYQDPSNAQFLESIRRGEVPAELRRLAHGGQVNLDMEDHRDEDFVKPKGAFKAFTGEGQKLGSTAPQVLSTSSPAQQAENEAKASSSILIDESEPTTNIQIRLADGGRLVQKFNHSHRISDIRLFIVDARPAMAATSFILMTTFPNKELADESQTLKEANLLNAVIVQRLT
Assay: pull-down; In vitro binding assay: 1 μg p47-GST and 2 μg p37 (WT or SHP), with or without 2 μg purified VCP, 1 hour at 4°C, then glutathione beads 1 hour; 25 mM Hepes pH 7.4, 150 mM NaCl, 0.01% Triton X-100, 5% glycerol
Details: both partners purified

- binding result: binds
B1: purified WT p37 (natural protein, human, UniProt Q14CS0 1-331, looked up)
chain: MAEGGGPEPGEQERRSSGPRPPSARDLQLALAELYEDEVKCKSSKSNRPKATVFKSPRTPPQRFYSSEHEYSGLNIVRPSTGKIVNELFKEAREHGAVPLNEATRASGDDKSKSFTGGGYRLGSSFCKRSEYIYGENQLQDVQILLKLWSNGFSLDDGELRPYNEPTNAQFLESVKRGEIPLELQRLVHGGQVNLDMEDHQDQEYIKPRLRFKAFSGEGQKLGSLTPEIVSTPSSPEEEDKSILNAVVLIDDSVPTTKIQIRLADGSRLIQRFNSTHRILDVRNFIVQSRPEFAALDFILVTSFPNKELTDESLTLLEADILNTVLLQQLK
notes: p37 (UBXN2B), human, wild type, from pGEX-6P-1 p37; also called p37 WT; p37WT; source: E. coli Rosetta 2 BL21 (DE3), purified (glutathione sepharose, eluted by PreScission cleavage)

From article PMC11068011 (Science Advances, 2024)
